± gives the uncertainty stated by the source.

The data set is described as follows: self-splicing fitness, log relative to wild type (ln ratio); higher = more splicing; Tetrahymena group I intron in knt gene, E. coli kanamycin selection, DiMSum; sequences stand for … in CUCUCU…GGAGGGAAAAGUUAUCAGGCAUGCACCUGGUAGCUAGUCUUUAAACCAAUAGAUUGCAUCGGUUUAAAAGGCAAGACCGUCAAAUUGCGGGAAAGGGGUCAACAGCCGUUCAGUACCAAGUCUCAGGGGAAACUUUGAGAUGGCCUUGCAAAGGGUAUGGUAAUAAGCUGACGGACAUGGUCCUAACCACGCAGCCAAGUCCUAAGUCAACAGAUCUUCUGUUGAUAUGGAUGCAGUUCACAGACUAAAUGUCGGUCGGGGAAGAUGUAUUCUUCUCAUAAGAUAUAGUCGGACCUCUCCUUAAUGGGAGCUAGCGGAUGAAGUGAUGCAACACUGGAGCCGCUGGGAACUAAUUUGUAUGCGAAAGUAUAUUGAUUAGUUUUGGAGUACUCGUGGUCG
The procedure, abridged: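 DiMSum derived fitness as the error-weighted combination of fold changes across replicates, kanamycin versus no kanamycin, normalised to wild type. E. coli BL21(DE3) held the library, which randomised all eight P1ex-region intron nucleotides within the knt kanamycin-resistance gene on pET-22b(+). Six replicate transformations grew overnight at 37°C or 30°C on LB agar with or without 25 μg/mL kanamycin, also containing 100 μg/mL carbenicillin, 50 μM IPTG and 0.2% rhamnose, and pooled colonies were amplicon-sequenced on an Illumina HiSeq 2500.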

With CGGCAGCAAUAUUACGGUCA, the “self-splicing fitness (ln)” value (30 °C) was -0.0453 ± 0.068 and the “self-splicing fitness (ln)” value (37 °C) was -0.156 ± 0.083.
Taken in the same sequence, the figures for CGGCAGCAAUAUUACGGUUA were -0.164 ± 0.067 and -0.476 ± 0.059.
Taken in the same sequence, the figures for CGGCAGCAAUAUUACGUAAG were -0.428 ± 0.059 and 0.0199 ± 0.075.
For CGGCAGCAAUAUUACGUAGG, in that order: -0.38 ± 0.075 and 0.0683 ± 0.097.
Take CGGCAGCAAUAUUACGUAUC: the “self-splicing fitness (ln)” value runs as follows: (30 °C) -3.9 ± 0.33; (37 °C) -2.86 ± 0.27.
For CGGCAGCAAUAUUACGUCAC, in that order: -3.84 ± 0.25 and -2.81 ± 0.29.
For CGGCAGCAAUAUUACGUCCC, in that order: -0.557 ± 0.23 and 0.728 ± 0.37.
For CGGCAGCAAUAUUACGUUCU, in that order: -0.518 ± 0.08 and -0.416 ± 0.11.
Turning to CGGGAGCAAUAUUACGAAAU, the “self-splicing fitness (ln)” value (37 °C) was -1.65 ± 0.44.
Regarding CGGGAGCAAUAUUACGACAG, the “self-splicing fitness (ln)” value by setting is: (30 °C) -1.7 ± 0.22; (37 °C) -0.944 ± 0.38.
Taken in the same sequence, the figures for CGGGAGCAAUAUUACGACGC were -4.16 ± 0.46 and -3.31 ± 0.3.
Regarding CGGGAGCAAUAUUACGCAAC, for the setting “30 °C”, the “self-splicing fitness (ln)” value is -2.66 ± 0.24.
Still for that read-out and setting: the figure for CGGGAGCAAUAUUACGCAAU is -3.15 ± 0.39; for CGGGAGCAAUAUUACGCACC it is -3.47 ± 0.39.
In the case of CGGGAGCAAUAUUACGCAGG, the “self-splicing fitness (ln)” value is -3.04 ± 0.36 (30 °C) and -0.973 ± 0.27 (37 °C).
On to CGGGAGCAAUAUUACGCGCU, for which the “self-splicing fitness (ln)” value (30 °C) was -3.25 ± 0.32.
For CGGGAGCAAUAUUACGGAGU, the “self-splicing fitness (ln)” value is, setting by setting: (30 °C) -3.92 ± 0.27; (37 °C) -2.77 ± 0.2.
Taken in the same sequence, the figures for CGGGAGCAAUAUUACGGAUU were -3.51 ± 0.33 and -1.27 ± 0.28.
On to CGGGAGCAAUAUUACGGCAA, for which the “self-splicing fitness (ln)” value (30 °C) is -3.64 ± 0.43.
With CGGGAGCAAUAUUACGGGGA, the “self-splicing fitness (ln)” value runs as follows: (30 °C) -2.04 ± 0.3; (37 °C) -1.83 ± 0.23.
As to CGGGAGCAAUAUUACGUAAC, for the setting “30 °C”, the “self-splicing fitness (ln)” value was -1.35 ± 0.27.
Turning to CGGGAGCAAUAUUACGUAAG, the “self-splicing fitness (ln)” value runs as follows: (30 °C) -1.46 ± 0.17; (37 °C) -0.321 ± 0.18.
Turning to CGGGAGCAAUAUUACGUAGG, the “self-splicing fitness (ln)” value is -1.91 ± 0.099 (30 °C) and -1.6 ± 0.17 (37 °C).
For CGGGAGCAAUAUUACGUCGU, in that order: -3.3 ± 0.26 and -2.35 ± 0.3.
CGGGAGCAAUAUUACGUGAU: where the note is “37 °C”, the “self-splicing fitness (ln)” value is -0.773 ± 0.19.
For the sequence CGGGAGCAAUAUUACGUUGA, the “self-splicing fitness (ln)” value runs as follows: (30 °C) -3.82 ± 0.39; (37 °C) -2 ± 0.23.
For CGGUAGCAAUAUUACGAAUU, in that order: -2.07 ± 0.24 and -2.34 ± 0.24.
Consider CGGUAGCAAUAUUACGACUC, for which the “self-splicing fitness (ln)” value (30 °C) is -1.01 ± 0.32 and the “self-splicing fitness (ln)” value (37 °C) stood at 1.23 ± 0.43.
As to CGGUAGCAAUAUUACGAUCA, the “self-splicing fitness (ln)” value by setting is: (30 °C) -0.493 ± 0.085; (37 °C) 0.196 ± 0.12.
With CGGUAGCAAUAUUACGAUGC, the “self-splicing fitness (ln)” value by setting is: (30 °C) -3.7 ± 0.2; (37 °C) -0.598 ± 0.13.
For CGGUAGCAAUAUUACGAUUU, the “self-splicing fitness (ln)” value by setting is: (30 °C) -2.17 ± 0.17; (37 °C) -0.333 ± 0.15.
Consider CGGUAGCAAUAUUACGCAAU, for which, under “37 °C”, the “self-splicing fitness (ln)” value was -3.67 ± 0.46.
Regarding CGGUAGCAAUAUUACGCAGC, the “self-splicing fitness (ln)” value was -2.14 ± 0.24 (30 °C) and -1.72 ± 0.31 (37 °C).
For CGGUAGCAAUAUUACGCCAC, in that order: -3.5 ± 0.39 and -2.03 ± 0.27.
For CGGUAGCAAUAUUACGCCGA, in that order: -0.997 ± 0.24 and -1.5 ± 0.25.
In the case of CGGUAGCAAUAUUACGCGAA, the “self-splicing fitness (ln)” value (30 °C) is -2.83 ± 0.25 and the “self-splicing fitness (ln)” value (37 °C) is -1.28 ± 0.19.

Source of the values: the supplement of paper PMC7877785.
